The record followed here is article PMC13384491.

Experiment [1] concerns the target Axonemes purified from sea urchin sperm, used as microtubule tracks (sea urchin). The experiment in a line: optical trapping; fixed (stationary) trap, high z-force: biotinylated K560 directly on 860-nm streptavidin beads, single motors, surface-immobilized axonemes, 2 mM ATP, 30 mM HEPES, 5 mM MgSO4, 1 mM EGTA, 10% glycerol, pH 7.4 with casein.
Experiment [2] shares this target. The experiment in a line: optical trapping; fixed (stationary) trap, low z-force: oligo-labeled full-length KIF5B on 510-nm beads through a 2.8 kb DNA handle, single motors, surface-immobilized axonemes, 2 mM ATP, 30 mM HEPES, 5 mM MgSO4, 1 mM EGTA, 10% glycerol, pH 7.4 with casein.

For the substance “K560-GFP-SNAP, tail-truncated, constitutively active human kinesin-1 KIF5B (amino acids 1-560) (from UniProt P33176 1-560) (domain or fragment)”, the stall time before detachment (weighted average of the two decays) in experiment [1] worked out at 0.27 s. For “KIF5B-GFP-SNAP, full-length human kinesin-1 KIF5B, oligo-labeled (from UniProt P33176 1-963) (natural protein)”, in experiment [2], the stall time before detachment (weighted average of the two decays) was found to be 1.49 s.
